Experimental data: patent US20240254232A1 (SUNSHINE GUOJIAN PHARMACEUTICAL SHANGHAI, published 2024)

How the values were obtained:
[1] = biological target: T1, PD-1 extracellular segment recombinant protein with polyhistidine tag (PD1-His) (UniProt Q15116 25-170, limits assumed); assay: ELISA, PD1-His coated at 20 ng/well, HRP anti-human Fc detection
T1 construct: extracellular domain
Protocol: (§1) The ELISA detection method used in the following embodiments is described as follows: the corresponding recombinant protein is coated on the microplate, and the microplate is closed with PBST containing 1% bovine serum albumin (PBST is a phosphate buffer containing 0.05% Tween-20). The antibody to be tested was sequentially diluted and then transferred to the above recombinant protein-coated microplates, incubated at room temperature for half an hour and then washed, appropriately diluted HRP (Horseradish Peroxidase)-labeled goat anti-human antibody (Fc specific, purchased from Sigma) was incubated at room temperature for half an hour and then washed, and 100 μl of TMB (3,3′,5,5′-Tetramethylbenzidine) was added to each well.
(§2) Hereby, HER2 extracellular segment recombinant protein (referred to as HER2-His, purchased from Sino Biological Inc.), PD-1 extracellular segment recombinant protein (referred to as PD1-His, purchased from Sino Biological Inc.), and LAG-3 extracellular segment recombinant protein (referred to as LAG3-His, purchased from ACROBiosystems) with polyhistidine tags were coated on microplates at concentrations of 20 ng/well, 20 ng/well, and 10 ng/well, respectively.

[2] = biological target: T2, LAG-3 extracellular segment recombinant protein with polyhistidine tag (LAG3-His) (UniProt P18627 23-450, limits assumed); assay: ELISA, LAG3-His coated at 10 ng/well, HRP anti-human Fc detection
T2 construct: extracellular domain
T2 sequence (looked up): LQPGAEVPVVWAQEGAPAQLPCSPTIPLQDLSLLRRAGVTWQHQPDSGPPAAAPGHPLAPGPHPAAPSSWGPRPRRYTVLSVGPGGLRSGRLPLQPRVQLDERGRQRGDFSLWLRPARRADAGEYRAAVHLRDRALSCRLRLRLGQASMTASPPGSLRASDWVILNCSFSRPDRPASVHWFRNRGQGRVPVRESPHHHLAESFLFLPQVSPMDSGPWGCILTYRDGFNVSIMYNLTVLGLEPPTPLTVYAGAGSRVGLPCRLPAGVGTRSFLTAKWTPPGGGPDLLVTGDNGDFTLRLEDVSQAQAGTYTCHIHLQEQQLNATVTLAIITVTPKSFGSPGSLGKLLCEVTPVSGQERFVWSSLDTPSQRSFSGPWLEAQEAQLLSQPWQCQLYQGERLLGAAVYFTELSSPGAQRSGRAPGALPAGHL
Protocol: as §1, §2

[3] = biological target: T3, HER2 extracellular segment recombinant protein with polyhistidine tag (HER2-His) (UniProt P04626 23-652, limits assumed); assay: ELISA, HER2-His coated at 20 ng/well, HRP anti-human Fc detection
T3 construct: extracellular domain
Protocol: as §1, §2

T1 sequence (Q15116 25-170 limits assumed): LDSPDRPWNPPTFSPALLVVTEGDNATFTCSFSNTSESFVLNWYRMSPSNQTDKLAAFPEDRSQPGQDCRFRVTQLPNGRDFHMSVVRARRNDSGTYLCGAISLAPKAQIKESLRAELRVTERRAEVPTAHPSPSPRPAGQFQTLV

Row | Binder | EC50 [1] | EC50 [2] | EC50 [3]
1 | 609-302-134-IgG4, hexavalent trispecific antibody against PD-1, HER-2 and LAG-3 (antibody) heavy: not shown light 1: not shown light 2: DIQMTQSPSSLSASVGDRVTITCRASQDIGSRLNWLQQKPGKSIKRLIYATSSLESGVPSRFSGSRSGSDYTLTISSLQPEDFATYYCLQSGSSPPTFGQGTKVEIKRTVAAPSVFIFPPSDEQLKSGTASVVCLLNNFYPREAKVQWKVDNALQSGNSQESVTEQDSKDSTYSLSSTLTLSKADYEKHKVYACEVTHQGLSSPVTKSFNRGEC | 0.125 nM | 0.26 nM | –
2 | 609-302-(44CC)-134-IgG4, hexavalent trispecific antibody against PD-1, HER-2 and LAG-3 (antibody) heavy: not shown light 1: not shown light 2: DIQMTQSPSSLSASVGDRVTITCRASQDIGSRLNWLQQKPGKSIKRLIYATSSLESGVPSRFSGSRSGSDYTLTISSLQPEDFATYYCLQSGSSPPTFGQGTKVEIKRTVAAPSVFIFPPSDEQLKSGTASVVCLLNNFYPREAKVQWKVDNALQSGNSQESVTEQDSKDSTYSLSSTLTLSKADYEKHKVYACEVTHQGLSSPVTKSFNRGEC | 0.0911 nM | 0.226 nM | 0.355 nM
3 | 609-302-(105CC)-134-IgG4, hexavalent trispecific antibody against PD-1, HER-2 and LAG-3 (antibody) heavy: not shown light 1: not shown light 2: DIQMTQSPSSLSASVGDRVTITCRASQDIGSRLNWLQQKPGKSIKRLIYATSSLESGVPSRFSGSRSGSDYTLTISSLQPEDFATYYCLQSGSSPPTFGQGTKVEIKRTVAAPSVFIFPPSDEQLKSGTASVVCLLNNFYPREAKVQWKVDNALQSGNSQESVTEQDSKDSTYSLSSTLTLSKADYEKHKVYACEVTHQGLSSPVTKSFNRGEC | 0.104 nM | 0.286 nM | 0.42 nM
4 | 134-IgG4 (134 Hu IgG4-C91S), humanized monoclonal antibody against human LAG-3 (antibody, V domains shown, also called Anti-LAG-3 antibody) VH: QVQLVQSGAEVKKPGASVKVSCKASGYTLTAYYMNWVRQAPGQSLEWIGVINPYNGDSSYNQKFKGRATLTVDKSTSTAYMELSSLRSEDTAVYYCARDDGYYRWYFDVWGQGTLVTVSS VL: DIQMTQSPSSLSASVGDRVTITCRASQDIGSRLNWLQQKPGKSIKRLIYATSSLESGVPSRFSGSRSGSDYTLTISSLQPEDFATYYCLQSGSSPPTFGQGTKVEIKR | – | 0.122 nM | –
